In assay [1] the target is T1, J protein (bacteriophage, UniProt P0DXX7).
T1 chain: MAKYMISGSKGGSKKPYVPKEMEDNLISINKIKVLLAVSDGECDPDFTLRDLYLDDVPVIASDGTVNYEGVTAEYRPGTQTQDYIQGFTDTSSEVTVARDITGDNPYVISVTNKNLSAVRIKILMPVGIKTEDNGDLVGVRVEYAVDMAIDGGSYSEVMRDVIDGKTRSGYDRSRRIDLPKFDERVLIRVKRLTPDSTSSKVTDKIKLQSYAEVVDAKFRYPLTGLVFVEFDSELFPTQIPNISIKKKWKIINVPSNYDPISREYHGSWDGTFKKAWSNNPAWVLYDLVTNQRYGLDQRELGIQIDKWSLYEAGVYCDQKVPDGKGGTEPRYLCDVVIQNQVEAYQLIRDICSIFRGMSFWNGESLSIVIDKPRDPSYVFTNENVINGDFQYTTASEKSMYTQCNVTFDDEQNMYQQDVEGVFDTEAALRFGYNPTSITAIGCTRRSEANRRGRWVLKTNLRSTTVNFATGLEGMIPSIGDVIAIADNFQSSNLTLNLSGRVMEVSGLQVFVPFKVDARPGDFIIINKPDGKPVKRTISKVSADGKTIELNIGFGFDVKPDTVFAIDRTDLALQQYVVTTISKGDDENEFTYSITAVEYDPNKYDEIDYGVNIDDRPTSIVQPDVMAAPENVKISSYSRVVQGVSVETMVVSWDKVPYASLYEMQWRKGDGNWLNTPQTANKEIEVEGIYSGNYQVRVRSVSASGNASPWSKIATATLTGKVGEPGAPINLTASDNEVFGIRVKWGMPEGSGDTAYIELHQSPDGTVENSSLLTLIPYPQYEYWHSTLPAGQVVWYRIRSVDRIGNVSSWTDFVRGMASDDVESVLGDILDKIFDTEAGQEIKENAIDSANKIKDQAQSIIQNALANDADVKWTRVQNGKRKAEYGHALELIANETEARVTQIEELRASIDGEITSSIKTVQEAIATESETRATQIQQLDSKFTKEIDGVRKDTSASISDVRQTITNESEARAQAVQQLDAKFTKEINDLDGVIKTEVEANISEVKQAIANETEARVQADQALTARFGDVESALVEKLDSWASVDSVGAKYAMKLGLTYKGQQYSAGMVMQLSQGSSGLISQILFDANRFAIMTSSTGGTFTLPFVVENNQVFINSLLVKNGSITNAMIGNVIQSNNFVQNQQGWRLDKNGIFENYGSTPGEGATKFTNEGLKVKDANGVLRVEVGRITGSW
Put plainly: BLI.

The target of assay [2] is Gifsy-1 central tail tip J protein with Flag tag (phage Gifsy-1 of Salmonella Typhimurium). Description: BLI. A general note: Biolayer interferometry detects binding as a change in optical thickness at a sensor tip.

B1: OmpX (protein)
chain: ATSTVTGGYAQSDAQGQMNKMGGFNLKYRYEEDNSPLGVIGSFTYTEKSRTASSGDYNKNQYYGITAGPAYRINDWASIYGVVGVGYGKFQTTEYPTYKHDTSDYGFSYGAGLQFNPMENVALDFSYEQSRIRSVDVGTWIAGVGYRF
In assay [1], B1 came in with a Kd of 70 nM.

B2: OmpX fused to TF and His tag (receptor)
chain: MKKIACLSALAAVLAFSAGTAVAATSTVTGGYAQSDAQGVANKMSGFNLKYRYEQDDNPLGVIGSFTYTEKDRTNGAGDYNKGQYYGITAGPAYRLNDWASIYGVVGVGYGKFQTTDYPTYKHDTSDYGFSYGAGLQFNPMENVALDFSYEQSRIRSVDVGTWIAGVGYRF
For the molecule B2, the koff in assay [2] was 0.000275 s⁻¹.

B3: BtuB (protein)
chain: QDTSPDTLVVTANRFQQPRSAVLAPVTIVTRQDIERWQSTSVNDVLRRLPGVDIAQSGGAGQNSSIFIRGTNSSHVLVLIDGVRLNLAGVSGSADLSQFPVSLVQRIEYIRGPRSAIYGSDAIGGVVNIITTRDNPGTELTAGWGSNSYQNYDISTQQQLGENTRATLIGDYEYTKGFDVVAKGGTGMQAQPDRDGFLSKTLYGALEHTFSDRWSGFVRGYGYDNRTDYDAYYSPGSPLIDTRKLYSQSWDAGLRFNGERIQSQLVSSYSHSKDYNYDPHYGRYDTSATLDEMKQYNVQWTNSVVVGHGNVGAGVDWQKQTTTPGTGYVPEGYDQRNTGVYLTGLQQLGDFTLEAAARSDDNSQFGRHGTWQTSAGWEFIEGYRFIASYGTSYKAPNLGQLYGYYGNPNLNPEKSKQWEGAFEGLTAGVSWRISGYRNDINDMIDYDDHLQKYYNEGKARIKGIEATANFDTGPLTHTVSYDYVDARNAITDTPLPRRSKQMAKYQLDWDVYDFDWGVTYQYLGSRYDSDYSAYPYRTVKMGGVSLWDLTVAYPVTSHLTVRGKIANLFDKDYETVYGYQTAGREYTLSGSYTF
With B3, the Kd in assay [1] was determined as 0.00597 nM.

A word on the Kd: it is the free concentration of one partner at which half of the binding sites on the other are occupied at equilibrium, for simple one-to-one binding. In general, koff refers to the rate constant with which the complex falls apart. Low values mean a long-lived complex, high ones a short-lived complex.

The record behind these values is PMC12312913 (2025).
